Assay results taken from patent publication EP4596580A1 (Staidson (Beijing) Biopharmaceuticals Co., Ltd., dated 2025).

How the values were obtained:
[1] = molecular target: T1, His-human LIGHT (human); experiment: cell-based or functional assay
T1 chain: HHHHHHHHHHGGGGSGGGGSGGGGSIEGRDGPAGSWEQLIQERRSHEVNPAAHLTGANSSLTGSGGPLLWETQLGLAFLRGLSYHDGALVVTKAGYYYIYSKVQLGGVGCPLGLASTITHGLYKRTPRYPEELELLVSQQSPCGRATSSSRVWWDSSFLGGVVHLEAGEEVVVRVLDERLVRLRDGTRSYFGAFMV

[2] = molecular target: LIGHT on the surface of HEK293-LIGHT stable cells (human, UniProt O43557 1-240); experiment: cell-based or functional assay
[3] = molecular target: T1, His-human LIGHT; experiment: cell-based or functional assay
[4] = molecular target: T2, His-cynomolgus monkey LIGHT (cynomolgus monkey); experiment: ELISA, His-cynoLIGHT coated
T2 construct: also called His-cynoLIGHT
T2 chain: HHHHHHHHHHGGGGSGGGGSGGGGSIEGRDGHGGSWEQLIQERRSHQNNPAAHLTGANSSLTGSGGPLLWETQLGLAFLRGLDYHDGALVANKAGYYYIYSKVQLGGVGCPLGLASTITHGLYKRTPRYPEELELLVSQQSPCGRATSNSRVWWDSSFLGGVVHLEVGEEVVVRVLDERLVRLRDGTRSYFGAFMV

[5] = molecular target: T3, hFc-human LIGHT (human); experiment: competition ELISA, LTβR-His coated, hFc-huLIGHT added
T3 construct: also called hFc-huLIGHT

[6] = molecular target: T3, hFc-human LIGHT; experiment: competition ELISA, LTβR-His coated, hFc-huLIGHT 1 µg/ml
[7] = molecular target: T1, His-human LIGHT; experiment: cell-based or functional assay
[8] = molecular target: T1, His-human LIGHT; experiment: cell-based or functional assay
[9] = molecular target: T1, His-human LIGHT; experiment: ELISA, His-huLIGHT coated
[10] = molecular target: T3, hFc-human LIGHT; experiment: competition ELISA, HVEM-His coated, hFc-huLIGHT 1 µg/ml

B1: LT-m37 (antibody, human IgG4, V domains shown)
VH: QVQLKQSGAELVRPGTSVKVSCKASGYSFTGYFINWVKQSHGKSLEWIGRIYPYNVNTFYNQNFKGRATLTADKSSSTAHMELLSLTSEDSAVYYCGRGTHYYGSSGAMDYWGQGTSVTVSS
VL: DILLTQSHKFMSTSVGDRVSITCKASQNVGTAVAWYQQKPGQSPKLLIYSASNRYTGVPDRFTGSGSGTDFTLTISNMQSEDLADYFCQQYSSYPYTFGGGTKLEIK
- IC50, LIGHT induced MMP-9 production in BEAS-2B bronchial epithelial cells [1]: 0.359 µg/mL
- IC50, LTβR NF-κB luciferase reporter, HEK293-LIGHT cells [2]: 2.28 nM
- IC50, HVEM NF-κB luciferase reporter (293T-HVEM-NF-κB-Luc), free LIGHT [3]: 0.264 µg/mL
- EC50 [4]: 0.157 nM
- IC50 [5]: 0.866 nM
- IC50 ratio (IC50 of the antibody / IC50 of F19) [6]: 0.301
- IC50, HVEM NF-κB luciferase reporter, free LIGHT [7]: 0.402 nM
- IC50, LTβR NF-κB luciferase reporter, free LIGHT [8]: 0.257 nM
- EC50 [9]: 0.0774 µg/mL
- IC50 ratio (IC50 of the antibody / IC50 of F19) [10]: 0.435
